Data published in patent US20220089698A1 (published 2022).

Legend:
HIV gp120 Bal = HIV gp120 Bal (HIV); experiment: single-point ELISA; further: test concentration or dose not given here
HIV gp120 CAAN = HIV gp120 CAAN (HIV); experiment: single-point ELISA; further: test concentration or dose not given here

B1: 1.21.1-1 (antibody, human IgG1, kappa)
heavy: QVQLLQSGAAVTKPGASVRVSCEASGYNIRDYFIHWWRQAPGQGLQWVGWINPKTGQPNNPRQFQGRVSLTRDASWDFDTFSFYMDLKALRSDDTAVYFCARQRSDYWDFDVWGSGTQVTVSSASTKGPSVFPLAPSSKSTSGGTAALGCLVKDYFPEPVTVSWNSGALTSGVHTFPAVLQSSGLYSLSSVVTVPSSSLGTQTYICNVNHKPSNTKVDKKVEPKSCDKTHTCPPCPAPELLAGPDVFLFPPKPKDTLMISRTPEVTCVVVDVSHEDPEVKFNWYVDGVEVHNAKTKPREEQYNSTYRVVSVLTVLHQDWLNGKEYKCKVSNKALPLPEEKTISKAKGQPREPQVYTLPPSREEMTKNQVSLTCLVKGFYPSDIAVEWESNGQPENNYKTTPPVLDSDGSFFLYSKLTVDKSRWQQGNVFSCSVLHEALHSHYTQKSLSLSPGK
light: DIQMTQSPSSLSASVGDTVTITCQANGYLNWYQQRRGKAPKLLIYDGSKLERGVPSRFSGRRWGQEYNLTINNLQPEDIATYFCQVYEFVVPGTRLDLKRTVAAPSVFIFPPSDEQLKSGTASVVCLLNNFYPREAKVQWKVDNALQSGNSQESVTEQDSKDSTYSLSSTLTLSKADYEKHKVYACEVTHQGLSSPVTKSFNRGEC
HIV gp120 Bal
  ELISA (A450): 0.87 A450
HIV gp120 CAAN
  ELISA (A450): 0.77 A450

B2: 1.26.1-1 (antibody, human IgG1, kappa)
heavy: QVQLLQSGAAVTKPGASVRVSCEASGYNIRDYFIHWWRQAPGQGLQWVGWINPKTGQPNNPRQFQGRVSLTRHASWDFDTFSFYMDLKALRSDDTATYFCARQRSDYWDFDVWGSGTQVTVSSASTKGPSVFPLAPSSKSTSGGTAALGCLVKDYFPEPVTVSWNSGALTSGVHTFPAVLQSSGLYSLSSVVTVPSSSLGTQTYICNVNHKPSNTKVDKKVEPKSCDKTHTCPPCPAPELLAGPDVFLFPPKPKDTLMISRTPEVTCVVVDVSHEDPEVKFNWYVDGVEVHNAKTKPREEQYNSTYRVVSVLTVLHQDWLNGKEYKCKVSNKALPLPEEKTISKAKGQPREPQVYTLPPSREEMTKNQVSLTCLVKGFYPSDIAVEWESNGQPENNYKTTPPVLDSDGSFFLYSKLTVDKSRWQQGNVFSCSVLHEALHSHYTQKSLSLSPGK
light: DIQMTQSPSSLSASVGDTVTITCQANGYLNWYQQRRGKAPKLLIYDGSKLERGVPSRFSGRRWGQEYNLTINNLQPEDIATYFCQVYEFVVPGTRLDLKRTVAAPSVFIFPPSDEQLKSGTASVVCLLNNFYPREAKVQWKVDNALQSGNSQESVTEQDSKDSTYSLSSTLTLSKADYEKHKVYACEVTHQGLSSPVTKSFNRGEC
HIV gp120 Bal
  ELISA (A450): 0.81 A450
HIV gp120 CAAN
  ELISA (A450): 1 A450

B3: 1.28.1-1 (antibody, human IgG1, kappa)
heavy: QVQLLQSGAAVTKPGASVRVSCEASGYNIRDYFIHWWRQAPGQGLQWVGWINPKTGQPNNPRQFQGRVSLTRHASWDFDTFSFYMDLKALRSDDTATYFCARQRTDYWDFDVWGSGTQVTVSSASTKGPSVFPLAPSSKSTSGGTAALGCLVKDYFPEPVTVSWNSGALTSGVHTFPAVLQSSGLYSLSSVVTVPSSSLGTQTYICNVNHKPSNTKVDKKVEPKSCDKTHTCPPCPAPELLAGPDVFLFPPKPKDTLMISRTPEVTCVVVDVSHEDPEVKFNWYVDGVEVHNAKTKPREEQYNSTYRVVSVLTVLHQDWLNGKEYKCKVSNKALPLPEEKTISKAKGQPREPQVYTLPPSREEMTKNQVSLTCLVKGFYPSDIAVEWESNGQPENNYKTTPPVLDSDGSFFLYSKLTVDKSRWQQGNVFSCSVLHEALHSHYTQKSLSLSPGK
light: DIQMTQSPSSLSASVGDTVTITCQANGYLNWYQQRRGKAPKLLIYDGSKLERGVPSRFSGRRWGQEYNLTINNLQPEDIATYFCQVYEFVVPGTRLDLKRTVAAPSVFIFPPSDEQLKSGTASVVCLLNNFYPREAKVQWKVDNALQSGNSQESVTEQDSKDSTYSLSSTLTLSKADYEKHKVYACEVTHQGLSSPVTKSFNRGEC
HIV gp120 Bal
  ELISA (A450): 1.05 A450
HIV gp120 CAAN
  ELISA (A450): 0.99 A450

B4: 1.25.1-1 (antibody, human IgG1, kappa)
heavy: QVQLLQSGAAVTKPGASVRVSCEASGYNIRDYFIHWWRQAPGQGLQWVGWINPKTGQPNNPRQFQGRVSLTRHASWDFDTFSFYMDLSRLRSDDTAVYFCARQRSDYWDFDVWGSGTQVTVSSASTKGPSVFPLAPSSKSTSGGTAALGCLVKDYFPEPVTVSWNSGALTSGVHTFPAVLQSSGLYSLSSVVTVPSSSLGTQTYICNVNHKPSNTKVDKKVEPKSCDKTHTCPPCPAPELLAGPDVFLFPPKPKDTLMISRTPEVTCVVVDVSHEDPEVKFNWYVDGVEVHNAKTKPREEQYNSTYRVVSVLTVLHQDWLNGKEYKCKVSNKALPLPEEKTISKAKGQPREPQVYTLPPSREEMTKNQVSLTCLVKGFYPSDIAVEWESNGQPENNYKTTPPVLDSDGSFFLYSKLTVDKSRWQQGNVFSCSVLHEALHSHYTQKSLSLSPGK
light: DIQMTQSPSSLSASVGDTVTITCQANGYLNWYQQRRGKAPKLLIYDGSKLERGVPSRFSGRRWGQEYNLTINNLQPEDIATYFCQVYEFVVPGTRLDLKRTVAAPSVFIFPPSDEQLKSGTASVVCLLNNFYPREAKVQWKVDNALQSGNSQESVTEQDSKDSTYSLSSTLTLSKADYEKHKVYACEVTHQGLSSPVTKSFNRGEC
HIV gp120 Bal
  ELISA (A450): 1.07 A450
HIV gp120 CAAN
  ELISA (A450): 1.16 A450

B5: 1.29.1-1 (antibody, human IgG1, kappa)
heavy: QVQLLQSGAAVTKPGASVRVSCEASGYNIRDYFIHWWRQAPGQGLQWVGWINPKTGQPNNPRQFQGRVSLTRHASWDFDTFSFYMDLKALRSDDTAVYFCARQRSDYWDFDVWGQGTQVTVSSASTKGPSVFPLAPSSKSTSGGTAALGCLVKDYFPEPVTVSWNSGALTSGVHTFPAVLQSSGLYSLSSVVTVPSSSLGTQTYICNVNHKPSNTKVDKKVEPKSCDKTHTCPPCPAPELLAGPDVFLFPPKPKDTLMISRTPEVTCVVVDVSHEDPEVKFNWYVDGVEVHNAKTKPREEQYNSTYRVVSVLTVLHQDWLNGKEYKCKVSNKALPLPEEKTISKAKGQPREPQVYTLPPSREEMTKNQVSLTCLVKGFYPSDIAVEWESNGQPENNYKTTPPVLDSDGSFFLYSKLTVDKSRWQQGNVFSCSVLHEALHSHYTQKSLSLSPGK
light: DIQMTQSPSSLSASVGDTVTITCQANGYLNWYQQRRGKAPKLLIYDGSKLERGVPSRFSGRRWGQEYNLTINNLQPEDIATYFCQVYEFVVPGTRLDLKRTVAAPSVFIFPPSDEQLKSGTASVVCLLNNFYPREAKVQWKVDNALQSGNSQESVTEQDSKDSTYSLSSTLTLSKADYEKHKVYACEVTHQGLSSPVTKSFNRGEC
HIV gp120 Bal
  ELISA (A450): 1.03 A450
HIV gp120 CAAN
  ELISA (A450): 1.08 A450

B6: 1v2-1 (antibody, human IgG1, kappa)
heavy: QVQLLQSGAAVTKPGASVRVSCEASGYNIRDYFIHWWRQAPGQGLQWVGWINPKTGQPNNPRQFQGRVSLTRHASWDFDTYSFYMDLKALRSDDTAVYFCARQRSDYWDFDVWGSGTQVTVSSASTKGPSVFPLAPSSKSTSGGTAALGCLVKDYFPEPVTVSWNSGALTSGVHTFPAVLQSSGLYSLSSVVTVPSSSLGTQTYICNVNHKPSNTKVDKKVEPKSCDKTHTCPPCPAPELLAGPDVFLFPPKPKDTLMISRTPEVTCVVVDVSHEDPEVKFNWYVDGVEVHNAKTKPREEQYNSTYRVVSVLTVLHQDWLNGKEYKCKVSNKALPLPEEKTISKAKGQPREPQVYTLPPSREEMTKNQVSLTCLVKGFYPSDIAVEWESNGQPENNYKTTPPVLDSDGSFFLYSKLTVDKSRWQQGNVFSCSVLHEALHSHYTQKSLSLSPGK
light: DIQMTQSPSSLSASVGDTVTITCQANGYLNWYQQRRGKAPKLLIYDGSKLERGVPSRFSGRRWGQEYNLTINNLQPEDIATYFCQVYEFVVPGTRLDLKRTVAAPSVFIFPPSDEQLKSGTASVVCLLNNFYPREAKVQWKVDNALQSGNSQESVTEQDSKDSTYSLSSTLTLSKADYEKHKVYACEVTHQGLSSPVTKSFNRGEC
HIV gp120 Bal
  ELISA (A450): 1.03 A450
HIV gp120 CAAN
  ELISA (A450): 1 A450

B7: 1.27.1-1 (antibody, human IgG1, kappa)
heavy: QVQLLQSGAAVTKPGASVRVSCEASGYNIRDYFIHWWRQAPGQGLQWVGWINPKTGQPNNPRQFQGRVSLTRHASWDFDTFSFYMDLKALRSDDTAVYFCARQRTDYWDFDVWGSGTQVTVSSASTKGPSVFPLAPSSKSTSGGTAALGCLVKDYFPEPVTVSWNSGALTSGVHTFPAVLQSSGLYSLSSVVTVPSSSLGTQTYICNVNHKPSNTKVDKKVEPKSCDKTHTCPPCPAPELLAGPDVFLFPPKPKDTLMISRTPEVTCVVVDVSHEDPEVKFNWYVDGVEVHNAKTKPREEQYNSTYRVVSVLTVLHQDWLNGKEYKCKVSNKALPLPEEKTISKAKGQPREPQVYTLPPSREEMTKNQVSLTCLVKGFYPSDIAVEWESNGQPENNYKTTPPVLDSDGSFFLYSKLTVDKSRWQQGNVFSCSVLHEALHSHYTQKSLSLSPGK
light: DIQMTQSPSSLSASVGDTVTITCQANGYLNWYQQRRGKAPKLLIYDGSKLERGVPSRFSGRRWGQEYNLTINNLQPEDIATYFCQVYEFVVPGTRLDLKRTVAAPSVFIFPPSDEQLKSGTASVVCLLNNFYPREAKVQWKVDNALQSGNSQESVTEQDSKDSTYSLSSTLTLSKADYEKHKVYACEVTHQGLSSPVTKSFNRGEC
HIV gp120 Bal
  ELISA (A450): 0.86 A450
HIV gp120 CAAN
  ELISA (A450): 0.86 A450

B8: 1.24.1-1 (antibody, human IgG1, kappa)
heavy: QVQLLQSGAAVTKPGASVRVSCEASGYNIRDYFIHWWRQAPGQGLQWVGWINPKTGQPNNPRQFQGRVSLTRHASWDFDTFSFSMDLKALRSDDTAVYFCARQRSDYWDFDVWGSGTQVTVSSASTKGPSVFPLAPSSKSTSGGTAALGCLVKDYFPEPVTVSWNSGALTSGVHTFPAVLQSSGLYSLSSVVTVPSSSLGTQTYICNVNHKPSNTKVDKKVEPKSCDKTHTCPPCPAPELLAGPDVFLFPPKPKDTLMISRTPEVTCVVVDVSHEDPEVKFNWYVDGVEVHNAKTKPREEQYNSTYRVVSVLTVLHQDWLNGKEYKCKVSNKALPLPEEKTISKAKGQPREPQVYTLPPSREEMTKNQVSLTCLVKGFYPSDIAVEWESNGQPENNYKTTPPVLDSDGSFFLYSKLTVDKSRWQQGNVFSCSVLHEALHSHYTQKSLSLSPGK
light: DIQMTQSPSSLSASVGDTVTITCQANGYLNWYQQRRGKAPKLLIYDGSKLERGVPSRFSGRRWGQEYNLTINNLQPEDIATYFCQVYEFVVPGTRLDLKRTVAAPSVFIFPPSDEQLKSGTASVVCLLNNFYPREAKVQWKVDNALQSGNSQESVTEQDSKDSTYSLSSTLTLSKADYEKHKVYACEVTHQGLSSPVTKSFNRGEC
HIV gp120 Bal
  ELISA (A450): 0.98 A450
HIV gp120 CAAN
  ELISA (A450): 0.9 A450

B9: 1.22.1-1 (antibody, human IgG1, kappa)
heavy: QVQLLQSGAAVTKPGASVRVSCEASGYNIRDYFIHWWRQAPGQGLQWVGWINPKTGQPNNPRQFQGRVSLTRHASTFSFYMDLKALRSDDTAVYFCARQRSDYWDFDVWGSGTQVTVSSASTKGPSVFPLAPSSKSTSGGTAALGCLVKDYFPEPVTVSWNSGALTSGVHTFPAVLQSSGLYSLSSVVTVPSSSLGTQTYICNVNHKPSNTKVDKKVEPKSCDKTHTCPPCPAPELLAGPDVFLFPPKPKDTLMISRTPEVTCVVVDVSHEDPEVKFNWYVDGVEVHNAKTKPREEQYNSTYRVVSVLTVLHQDWLNGKEYKCKVSNKALPLPEEKTISKAKGQPREPQVYTLPPSREEMTKNQVSLTCLVKGFYPSDIAVEWESNGQPENNYKTTPPVLDSDGSFFLYSKLTVDKSRWQQGNVFSCSVLHEALHSHYTQKSLSLSPGK
light: DIQMTQSPSSLSASVGDTVTITCQANGYLNWYQQRRGKAPKLLIYDGSKLERGVPSRFSGRRWGQEYNLTINNLQPEDIATYFCQVYEFVVPGTRLDLKRTVAAPSVFIFPPSDEQLKSGTASVVCLLNNFYPREAKVQWKVDNALQSGNSQESVTEQDSKDSTYSLSSTLTLSKADYEKHKVYACEVTHQGLSSPVTKSFNRGEC
HIV gp120 Bal
  ELISA (A450): 1.03 A450
HIV gp120 CAAN
  ELISA (A450): 0.87 A450
